Measurements taken from patent US20260234222A1 (LEYDEN LABORATORIES B V, published 2026).
Where two headings read alike, the source gives them in different places.

B1: Parental mAb 2 (antibody, V domains shown)
VH: QMQLMQSGAEVKKPGASVTVSCKASGDTFSDYRIHWVRQAPGQGLEWMGRMNPKSGDTNFAQKFQGRVTMTRDMSINTAYMTLSGLTFDDTALYYCASLLIVGGFDPLDDFEVWGQGTMVTISS
VL: QSALTQPPSASGSPGQSVTISCSGTSSDVGGYNFVSWYQHHPGKAPKILIYEVTKRPSGVPDRFSGSKSGNTASLTVSGLQAEDEADYYCSSYGGTNNLLFGGGTKLTVL
B2: Parental mAb 1 (antibody, V domains shown)
VH: QEQLVQSGAEVKKPGASVKVSCKSSGFTFSYFYLHWVRQAPGQGLEWMGIINPRGDGTRYAQKFQGRVTMTRDASTGTLYMELRSLRSEDTAVYYCARGADHGAFDIWGQGTMVTVSS
VL: EIVLTQSPGTLSLSPGERATLSCRASQSVRRNYFAWYQQKRGQAPRLLIYDASTRATGIPDRFSGSGSGTDFTLTISRLEPEDFAVYYCQQYDSSPPMYIFGQGTKLEIK
notes: also called antibody according to the invention; first parental antibody
B3: Bispecific 1 (bispecific antibody)
heavy 1: not shown
light 1: EIVLTQSPGTLSLSPGERATLSCRASQSVRRNYFAWYQQKRGQAPRLLIYDASTRATGIPDRFSGSGSGTDFTLTISRLEPEDFAVYYCQQYDSSPPMYIFGQGTKLEIKSSASTKGPSVFPLAPSSKSTSGGTAALGCLVKDYFPEPVTVSWNSGALTSGVHTFPAVLQSSGLYSLSSVVTVPSSSLGTQTYICNVNHKPSNTKVDKKVEPKSC
heavy 2: not shown
light 2: QSALTQPPSASGSPGQSVTISCSGTSSDVGGYNFVSWYQHHPGKAPKILIYEVTKRPSGVPDRFSGSKSGNTASLTVSGLQAEDEADYYCSSYGGTNNLLFGGGTKLTVLGQPKAAPSVTLFPPSSEELQANKATLVCLISDFYPGAVTVAWKADSSPVKAGVETTTPSKQSNNKYAASSYLSLTPEQWKSHRSYSCQVTHEGSTVEKTVAPTECS

What was measured:
Assay in all cases: cell-based or functional assay
[1] = biological target: SARS-CoV-2 Delta Spike antigen (SARS-CoV-2 Delta)
[2] = biological target: T1, SARS-CoV-2 Omicron BA.4/5 spike (SARS-CoV-2 Omicron BA.4/5)
[3] = biological target: SARS-CoV-2 Delta Spike antigen (SARS-CoV-2 Delta); remark: listed apart in the source
[4] = biological target: T1, SARS-CoV-2 Omicron BA.4/5 spike; remark: listed apart in the source
[5] = biological target: SARS-CoV-2 Omicron XBB.1.1 spike (SARS-CoV-2 Omicron XBB.1.1)
[6] = biological target: T1, SARS-CoV-2 Omicron BA.4/5 spike; remark: listed apart in the source

Binder	Live virus neutralization IC50 [1]	Live virus neutralization IC50 [2]	Pseudovirion neutralization IC50 [3]	Pseudovirion neutralization IC50 [4]	Pseudovirion neutralization IC50 [5]	Pseudovirion neutralization IC50 [6]
B1	16.1 µg/mL	4.62 µg/mL	0.488 µg/mL	7.56 µg/mL	20.6 µg/mL	–
B2	–	2.92 µg/mL	–	4.13 µg/mL	4.85 µg/mL	4.13 µg/mL
B3	14.2 µg/mL	4.85 µg/mL	0.307 µg/mL	5.14 µg/mL	11.9 µg/mL	–
